Measurements published in patent EP0308499B1, “SUBSTRATE ASSISTED CATALYSIS” (GENENCOR INTERNATIONAL, INC., priority 1987, dated 1988).
Numbered stars: 1 amine (or outer) side, 2 acyl side, 3 side chain; on linkers, the order of the positions; unused ones are H or OH. Peptide text beside a SMILES is read from it. * marks the point of attachment. pNA = O=[N+]([O-])c1ccc(N*)cc1; Suc = O=C(CCC(=O)[*:2])[*:1]

What was measured:
[1] = molecular target: T1, B. amyloliquefaciens subtilisin mutant Cys-24/Ala-64 (Ser-24→Cys/His-64→Ala) (Bacillus amyloliquefaciens, UniProt P00782, H171A/S131C); test: Kinetic analysis of hydrolysis of p-nitroanilide peptide substrates (release of ρ-nitroaniline, Eadie-Hofstee plot); assay type: biochemical
T1 construct: The His-64→Ala mutation caused a severe reduction in secretion of mature subtilisin; made in house; host or cells: Bacillus subtilis BG2036, co-cultured with helper cells carrying active Ala-48→Glu subtilisin
T1 sequence (P00782 108-382 S131C/H171A): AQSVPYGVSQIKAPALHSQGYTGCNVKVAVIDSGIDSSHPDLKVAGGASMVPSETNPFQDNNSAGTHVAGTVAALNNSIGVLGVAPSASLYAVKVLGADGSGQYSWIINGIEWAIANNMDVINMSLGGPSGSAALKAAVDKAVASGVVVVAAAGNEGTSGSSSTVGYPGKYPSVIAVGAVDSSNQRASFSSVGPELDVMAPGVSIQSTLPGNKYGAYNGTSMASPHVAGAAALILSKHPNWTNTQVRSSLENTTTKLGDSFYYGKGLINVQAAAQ
Method: (§1) The kinetic parameters for Cys-24 and Cys-24/Ala-64 were determined against the substrates N-succinyl-L-Phe-L-Ala-L-[X)-L-Phe-ρ-nitroanilide (abbreviated sFAXF-pNA), where X (P2 position) was Ala, Gln, or His (Table I). […] By comparison, the His-64→Ala mutation causes a drop of ∿10⁶ fold in kcat/Km against the Ala and Gln P2 substrates. Almost all of the decrease in catalytic efficiency is caused by a decreased kcat term (up to 10⁶ times), although smaller but significant increases appear in Km. […] Although the proportion of functional active sites in Cys-24/Ala-64 enzyme preparations could not be determined directly by such active site labeling, enzyme that was purified by additional native gel electrophoresis (Example 6) had identical kinetic parameters to Cys-24/Ala-64 described in Table V.

[2] = molecular target: β-lactamase, Serine-70 substituted with cysteine (thiol-containing β-lactamase) (Escherichia coli, UniProt P62593, S68C); conditions: cited from earlier work; for kcat: relative to that of a wild type enzyme
[3] = molecular target: T1, B. amyloliquefaciens subtilisin mutant Cys-24/Ala-64 (Ser-24→Cys/His-64→Ala); test: Inhibition by the active site reagent PMSF; assay type: biochemical; conditions: concentration not given
Method: as §1
Several lines of evidence indicate that the activity we attribute to the Cys-24/Ala-64 enzyme is not the result of any other protease contamination. Firstly, the extreme substrate preference for His at the P2 position is unlike wild-type subtilisin or any known Bacillus protease. […] Finally, the kinetic values determined for Cys-24/Ala-64 that was additionally purified by native gel electrophoresis (Example 6) are essentially the same as these reported in Table V.

[4] = substrate: C[C@H](NC(=O)[C@H](C)NC(=O)[C@H](Cc1ccccc1)NC(=O)CCC(=O)O)C(=O)N[C@@H](Cc1ccccc1)C(=O)Nc1ccc([N+](=O)[O-])cc1; test: Kinetic analysis of hydrolysis of p-nitroanilide peptide substrates (release of ρ-nitroaniline, Eadie-Hofstee plot); assay type: biochemical, B. amyloliquefaciens; conditions: other: 0.10 M Tris-HCl (pH 8.6), 10 mM DTT, 25±0.1°C, 25.0 °C
Method: as §1

[5] = substrate: C[C@H](NC(=O)[C@H](Cc1ccccc1)NC(=O)CCC(=O)O)C(=O)N[C@@H](CCC(N)=O)C(=O)N[C@@H](Cc1ccccc1)C(=O)Nc1ccc([N+](=O)[O-])cc1; test: as above; assay type: biochemical, B. amyloliquefaciens; conditions: other: 0.10 M Tris-HCl (pH 8.6), 10 mM DTT, 25±0.1°C, 25.0 °C
Method: as §1

[6] = substrate: C[C@H](NC(=O)[C@H](Cc1ccccc1)NC(=O)CCC(=O)O)C(=O)N[C@@H](Cc1c[nH]cn1)C(=O)N[C@@H](Cc1ccccc1)C(=O)Nc1ccc([N+](=O)[O-])cc1; test: as above; assay type: biochemical, B. amyloliquefaciens; conditions: other: 0.10 M Tris-HCl (pH 8.6), 10 mM DTT, 25±0.1°C, 25.0 °C
Method: as §1

Molecule: C[C@H](NC(=O)[C@H](Cc1ccccc1)NC(=O)CCC(=O)O)C(=O)N[C@@H](Cc1c[nH]cn1)C(=O)N[C@@H](Cc1ccccc1)C(=O)Nc1ccc([N+](=O)[O-])cc1 [His, N-succinyl-L-Phe-L-Ala-L-X-L-Phe-ρ-nitroanilide] (Suc-FAHF-pNA)
- catalytic efficiency below wild-type ([1]; kcat/Km compared with wild-type subtilisin): 5,000 fold
- kcat of the His P2 substrate larger than that of the Ala P2 substrate by a factor ([1]; pH 8.6, Table V data): 2,000
- kcat of the His P2 substrate larger than that of the Gln P2 substrate by a factor ([1]; pH 8.6, Table V data): 500

Molecule: CC1(C)S[C@@H]2[C@H](NC(=O)[C@H](N)c3ccccc3)C(=O)N2[C@H]1C(=O)O [ampicillin]
- kcat [2]: 1-2%

Molecule: CC1(C)S[C@@H]2[C@H](NC(=O)Cc3ccccc3)C(=O)N2[C@H]1C(=O)O [benzyl penicillin]
- kcat [2]: 1-2%

Molecule: O=S(=O)(F)Cc1ccccc1 [PMSF, phenylmethylsulfonyl-fluoride]
- inhibition by PMSF [3]: completely resistant to inhibition

Molecule: O=C(Cc1cccs1)N[C@@H]1C(=O)N2C(C(=O)O)=C(/C=C/c3ccc([N+](=O)[O-])cc3[N+](=O)[O-])CS[C@H]12 [nitrocefin]
- Km ([2]; relative to that of the wild type): greater than 10 fold

B1: B. amyloliquefaciens subtilisin, recombinant Cys-24 (Ser-24→Cys; kinetically essentially identical to wild-type) (Bacillus amyloliquefaciens; S131C) (protein)
chain: AQSVPYGVSQIKAPALHSQGYTGCNVKVAVIDSGIDSSHPDLKVAGGASMVPSETNPFQDNNSHGTHVAGTVAALNNSIGVLGVAPSASLYAVKVLGADGSGQYSWIINGIEWAIANNMDVINMSLGGPSGSAALKAAVDKAVASGVVVVAAAGNEGTSGSSSTVGYPGKYPSVIAVGAVDSSNQRASFSSVGPELDVMAPGVSIQSTLPGNKYGAYNGTSMASPHVAGAAALILSKHPNWTNTQVRSSLENTTTKLGDSFYYGKGLINVQAAAQ
notes: Maturation of the primary subtilisin gene product (preprosubtilisin) to subtilisin in B. substilis is believed to be mediated by autoproteolysis; made in house
- Km [4]: 10 µM
- kcat [4]: 8.1 s⁻¹
- kcat/Km [4]: 8.0 x 10^5 s^-1M^-1
- Km [5]: 39 µM
- kcat [5]: 7.0 s⁻¹
- kcat/Km [5]: 1.8 x 10^5 s^-1M^-1
- Km [6]: 23 µM
- kcat [6]: 4.6 s⁻¹
- kcat/Km [6]: 2.0 x 10^5 s^-1M^-1

B2: B. amyloliquefaciens subtilisin mutant Cys-24/Ala-64 (Ser-24→Cys/His-64→Ala) (Bacillus amyloliquefaciens; H171A/S131C) (protein)
chain: AQSVPYGVSQIKAPALHSQGYTGCNVKVAVIDSGIDSSHPDLKVAGGASMVPSETNPFQDNNSAGTHVAGTVAALNNSIGVLGVAPSASLYAVKVLGADGSGQYSWIINGIEWAIANNMDVINMSLGGPSGSAALKAAVDKAVASGVVVVAAAGNEGTSGSSSTVGYPGKYPSVIAVGAVDSSNQRASFSSVGPELDVMAPGVSIQSTLPGNKYGAYNGTSMASPHVAGAAALILSKHPNWTNTQVRSSLENTTTKLGDSFYYGKGLINVQAAAQ
- Km ([4]; in the presence of PMSF): 32 µM
- kcat ([4]; in the presence of PMSF): 8.1e-06 s⁻¹
- kcat/Km ([4]; in the presence of PMSF): 0.25 s^-1M^-1
- Km ([5]; in the presence of PMSF): 150 µM
- kcat ([5]; in the presence of PMSF): 3e-05 s⁻¹
- kcat/Km ([5]; in the presence of PMSF): 0.20 s^-1M^-1
- Km ([6]; in the presence of PMSF): 380 µM
- kcat ([6]; in the presence of PMSF): 0.016 s⁻¹
- kcat/Km ([6]; in the presence of PMSF): 42 s^-1M^-1
